According to US20250276075A1, “METHODS OF TREATING AXL-EXPRESSING CANCERS WITH ANTI-AXL ANTIBODIES, ANTIBODY FRAGMENTS AND THEIR IMMUNOCONJUGATES” (BIOATLA, INC., priority 2020, published 2025):
Numbering of substitutions follows the chain as printed. Names may count otherwise.

B1: HC-E102R (antibody, V domains shown)
VH: EVQLVQSGAEVKKPGATVKISCKVSGYSFTGHTMNWIRQPPGKGLEWIGLIKPSNGGTSYNQKFKGRVTISADKSISTAYLQWSSLKASDTAMYYCAHGHYRSYFAMDYWGQGTLVTVSS
VL: DIQMTQSPSSLSASVGDRVTITCKASQDVSSAVAWYQQKPGQAPRLLIYWASTRHTGVPSRFSGSGSGTEFTLTISSLQPDDFATYYCQEHFSTPLTFGQGTKVEIK
B2: LC-F092N (antibody, V domains shown)
VH: B1 VH with R102E
VL: B1 VL with F92N
B3: LC-H091F (antibody, V domains shown)
VH: B1 VH with R102E
VL: B1 VL with H91F
B4: LC-P095D (antibody, V domains shown)
VH: B1 VH with R102E
VL: B1 VL with P95D
B5: LC-P095H (antibody, V domains shown)
VH: B1 VH with R102E
VL: B1 VL with P95H
B6: LC-A051P (antibody, V domains shown)
VH: B1 VH with R102E
VL: B1 VL with A51P
B7: LC-A051N (antibody, V domains shown)
VH: B1 VH with R102E
VL: B1 VL with A51N
B8: LC-P095A (antibody, V domains shown)
VH: B1 VH with R102E
VL: B1 VL with P95A
B9: LC-H091L (antibody, V domains shown)
VH: B1 VH with R102E
VL: B1 VL with H91L
B10: LC-F092S (antibody, V domains shown)
VH: B1 VH with R102E
VL: B1 VL with F92S
B11: LC-H091C (antibody, V domains shown)
VH: B1 VH with R102E
VL: B1 VL with H91C
B12: LC-H091Q (antibody, V domains shown)
VH: B1 VH with R102E
VL: B1 VL with H91Q
B13: LC-W050F (antibody, V domains shown)
VH: B1 VH with R102E
VL: B1 VL with W50F
B14: LC-A051I (antibody, V domains shown)
VH: B1 VH with R102E
VL: B1 VL with A51I
B15: LC-P095K (antibody, V domains shown)
VH: B1 VH with R102E
VL: B1 VL with P95K
B16: LC-T094C (antibody, V domains shown)
VH: B1 VH with R102E
VL: B1 VL with T94C
B17: LC-P095E (antibody, V domains shown)
VH: B1 VH with R102E
VL: B1 VL with P95E
B18: LC-H091I (antibody, V domains shown)
VH: B1 VH with R102E
VL: B1 VL with H91I
B19: LC-P095C (antibody, V domains shown)
VH: B1 VH with R102E
VL: B1 VL with P95C

The molecules below were run against T1, Axl (Homo sapiens, UniProt P30530) (assay: Affinity ELISA of CPE mutant antibodies for binding to Axl at pH 6.0 over pH 7.4). Details: heavy chain variable region mutants; 1:3 dilution.
T1 sequence (P30530 26-451 limits assumed): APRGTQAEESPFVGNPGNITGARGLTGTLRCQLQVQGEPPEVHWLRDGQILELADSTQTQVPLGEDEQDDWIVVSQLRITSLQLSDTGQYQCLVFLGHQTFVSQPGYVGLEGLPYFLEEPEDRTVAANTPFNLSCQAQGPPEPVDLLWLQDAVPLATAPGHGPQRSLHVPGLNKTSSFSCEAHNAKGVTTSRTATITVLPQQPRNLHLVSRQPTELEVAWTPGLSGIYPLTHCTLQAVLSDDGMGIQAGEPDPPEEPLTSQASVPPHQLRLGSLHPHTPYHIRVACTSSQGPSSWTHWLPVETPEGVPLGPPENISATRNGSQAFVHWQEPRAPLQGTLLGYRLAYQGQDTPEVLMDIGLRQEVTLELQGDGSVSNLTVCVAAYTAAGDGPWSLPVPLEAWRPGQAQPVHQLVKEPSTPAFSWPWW
Text: The DNA encoding the wild-type antibody was evolved to generate a mutant antibody library using Comprehensive Positional Evolution (CPE), which each position in the template antibody is randomized one at a time. Each mutant antibody in the library has only one single point mutation. The mutant antibodies in the library were generated by simultaneously screening for selective binding affinity to Axl at pH 6.0 over pH 7.4 by ELISA. Two mutant antibody dilutions were used: 1:3 and 1:9 dilutions. The mutant antibodies that have at least 1.5 ratio of binding affinity at pH 6.0 to at pH 7.4 under either 1:3 or 1:9 dilution are selected as conditionally active antibodies, with the single point mutations indicated in each of the heavy chain and light chain variable region (Tables 1 and 2).
A wild-type antibody to Axl was selected as the template antibody (with a heavy chain variable region of 063-hum10F10-HC in FIG. 1A and a light chain variable region of […]). The DNA encoding the wild-type antibody was evolved to generate a mutant antibody library using Comprehensive Positional Evolution (CPE), a method by which each position in the template antibody is randomized one at a time. Each mutant antibody in the library has only one single point mutation. The mutant antibodies in the library were generated by simultaneously screening for selective binding affinity to Axl at pH 6.0 over pH 7.4 as determined by ELISA.
Simultaneously, the expression level of the mutant antibodies was also optimized for the purpose of higher fields in a manufacturing process. The screening was done in serum using a FLAG tag because there were human antibodies in the serum which might cause false positives for the screening. The screening buffer was a carbonate buffer (Krebs buffer with ringer-standard buffer but different from PBS). […] Some of the selected mutant antibodies (scFv) were represented in FIG. 2 with their higher activity at pH 6.0 than at pH 7.4, while their activity ratios between pH 6.0 to pH 7.4 were at least 11 fold (FIG. 3).

Molecule | Affinity ELISA CPE mutant ratio (1:3, pH 6.0/7.4)
B1 | 3.701

Same assay, conditions: heavy chain variable region mutants; 1:9 dilution

Molecule | Affinity ELISA CPE mutant ratio (1:9, pH 6.0/7.4)
B1 | 3.416

Same assay, conditions: light chain variable region mutants; 1:3 dilution

Molecule | Affinity ELISA CPE mutant ratio (1:3, pH 6.0/7.4)
B2 | 1.933
B3 | 1.603
B4 | 3.949
B5 | 2.504
B6 | 1.920
B7 | 1.412
B8 | 2.523
B9 | 2.798
B10 | 3.179
B11 | 4.003
B12 | 1.770
B13 | 2.245
B14 | 2.241
B15 | 3.840
B16 | 1.423
B17 | 7.121
B18 | 1.550
B19 | 2.350

Same assay, conditions: light chain variable region mutants; 1:9 dilution

Molecule | Affinity ELISA CPE mutant ratio (1:9, pH 6.0/7.4)
B2 | 2.004
B3 | 2.116
B4 | 2.889
B5 | 2.754
B6 | 1.569
B7 | 2.200
B8 | 2.987
B9 | 2.081
B10 | 2.937
B11 | 3.025
B12 | 2.010
B13 | 3.504
B14 | 2.139
B15 | 3.468
B16 | 1.768
B17 | 7.511
B18 | 2.154
B19 | 2.630

These molecules were tested against Axl (UniProt P30530) (assay: ELISA, 1:9 dilution). Details: not given.

Molecule | Affinity ELISA CPE mutant ratio (1:9, pH 6.0/7.4)
B2 | 2
B3 | 2.12
B4 | 2.89
B5 | 2.75
B1 | 3.42
B6 | 1.57
B7 | 2.2
B8 | 2.99
B9 | 2.08
B10 | 2.94
B11 | 3.02
B12 | 2.01
B13 | 3.5
B14 | 2.14
B15 | 3.47
B16 | 1.77
B17 | 7.51
B18 | 2.15
B19 | 2.63

What follows are molecules tested against Axl (UniProt P30530) (assay: ELISA, 1:3 dilution). Details: not given.

Molecule | Affinity ELISA CPE mutant ratio (1:3, pH 6.0/7.4)
B2 | 1.93
B3 | 1.6
B4 | 3.95
B5 | 2.5
B1 | 3.7
B6 | 1.92
B7 | 1.41
B8 | 2.52
B9 | 2.8
B10 | 3.18
B11 | 4
B12 | 1.77
B13 | 2.25
B14 | 2.24
B15 | 3.84
B16 | 1.42
B17 | 7.12
B18 | 1.55
B19 | 2.35
